Test results from patent US20110152166A1, “METHOD OF MODULATION OF PROTEIN PHOSPHORYLATION-DEPENDENT CONFORMATIONAL TRANSITIONS WITH LOW MOLECULAR WEIGHT COMPOUNDS” (priority 2006, published 2011).
Where a chain is given by its changes, count along the chain named. Square brackets hold non-standard residues; d marks the D form. Ends that are not written are not given here. pS = N[C@@H](COP(=O)(O)O)C(=O)O

Key:
Experiment in all cases: PDK1 activity assay with T308tide
Type in all cases: biochemical
GST-PDK1 wt = molecular target: T1, GST-PDK1 wt (Homo sapiens, UniProt O15530)
T1 construct: different protein constructs, comprising the full length protein or the catalytic domain alone; made in house; host or cells: HEK293 cells (pEBG-2T-PDK1)
T1 sequence (O15530 1-556): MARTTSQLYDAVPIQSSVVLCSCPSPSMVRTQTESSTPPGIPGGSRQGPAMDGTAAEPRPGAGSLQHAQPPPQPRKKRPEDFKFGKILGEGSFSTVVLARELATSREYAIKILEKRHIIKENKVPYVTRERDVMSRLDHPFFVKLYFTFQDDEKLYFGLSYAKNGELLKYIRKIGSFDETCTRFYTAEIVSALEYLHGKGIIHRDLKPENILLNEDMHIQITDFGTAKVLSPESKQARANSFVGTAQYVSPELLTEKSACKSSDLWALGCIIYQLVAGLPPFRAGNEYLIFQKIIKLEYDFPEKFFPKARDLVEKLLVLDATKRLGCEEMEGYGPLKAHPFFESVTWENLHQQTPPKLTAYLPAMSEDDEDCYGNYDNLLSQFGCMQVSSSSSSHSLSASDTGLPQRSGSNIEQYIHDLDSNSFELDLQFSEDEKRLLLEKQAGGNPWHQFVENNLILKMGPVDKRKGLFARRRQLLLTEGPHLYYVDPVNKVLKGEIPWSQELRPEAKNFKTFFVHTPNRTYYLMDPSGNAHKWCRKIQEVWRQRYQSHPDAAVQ
Experimental: (§1) Protein kinase activity tests were performed essentially as previously described (Balendran et al., 2000; Biondi et al., 2000; Biondi et al., 2001). Substrates used were either MBP (for PKCζ or polypeptides (Crosstide for PKB, S6K, SGK and PRK2; T308tide for PDK1, and Kemptide for PKA). PKA (Sigma) was measured in the presence of 100 μM cAMP. Alternatively, assays were performed in a 96 well format, aliquots spotted on p81 phosphocellulose papers (Whatmann), washed in 0.01% phosphoric acid, dried, and then exposed and analysed using Phospholmager technology (Storm, Molecular Dynamics). Activity measurements were performed in duplicates with less than 10% difference between duplicate pairs. Experiments were repeated at least twice, although most of the experiments were repeated multiple times, with similar results.
(§2) PDK1 activity assay was performed in a 20 μl mix containing 50 mM Tris-HCl pH 7.5, 0.05 mg/ml BSA, 0.1% β-mercaptoethanol, 10 mM MgCl2, 100 μM [γ^32P]ATP (5-50 cpm/pmol), 0.003% Brij, 150 ng PDK1, and T308tide (from 0.05 to 1 mM). PDK1 specific activity was approximately 5 U/mg (when measured at 1 mM T308tide). The effect of small compounds on PDK1 was repeated with proteins from different purification batches and with different protein constructs, comprising the full length protein or the catalytic domain alone, with similar results. […] This variability may be due to the PIFtide/compound-stimulated autophosphorylation of the activation loop in certain preparations having less than a 1:1 molar phosphorylation stoichiometry at this site.
(§3) PDK1 activity was measured at room temperature using a polypeptide substrate derived from the activation loop phosphorylation site of PKB, T308tide (0.1 mM). […] GST-PDK1 wt was purified in numerous occasions and the maximal activation level of different batches varied between 3 and 8 fold activation with PIFtide or compound 1. Variations in the basal activity and fold activation were also observed in mutants. Therefore, comparisons in the maximal level of activation between mutants should be performed with care. The data shown are from an experiment where PIFtide concentrations were tested between 50 nM and 20 µM and compound 1 concentrations were between 5 μM and 200 μM, in triplicate. AC50 and max. activity were estimated by fitting the data to a hyperbola using Kaleidagraph software. One Unit of PDK1 activity was defined as the amount required to catalyse the phosphorylation of 1 nmol of the T308tide in 1 min.

GST-PDK1 [Gln150Ala] = molecular target: T2, GST-PDK1 [Gln150Ala] (Homo sapiens, UniProt O15530, Q150A); details: PDK1[Gln150Ala]; 20 μM
T2 construct: different protein constructs, comprising the full length protein or the catalytic domain alone; made in house; host or cells: HEK293 cells (pEBG-2T-PDK1 mutant)
T2 sequence (O15530 1-556 Q150A): T1 sequence (O15530 1-556) with Q150A
Experimental: as §1, §2, §3

GST-PDK1 [Ile119Ala] = molecular target: T3, GST-PDK1 [Ile119Ala] (Homo sapiens, UniProt O15530, I119A); details: Ile119 mutant; P-HM-RSK 20 μM
T3 construct: different protein constructs, comprising the full length protein or the catalytic domain alone; made in house; host or cells: HEK293 cells (pEBG-2T-PDK1 mutant)
T3 sequence (O15530 1-556 I119A): T1 sequence (O15530 1-556) with I119A
Experimental: as §1, §2, §3

GST-PDK1 [Thr148Val] = molecular target: T4, GST-PDK1 [Thr148Val] (Homo sapiens, UniProt O15530, T148V); details: PDK1[Thr148Val]; 20 μM
T4 construct: different protein constructs, comprising the full length protein or the catalytic domain alone; made in house; host or cells: HEK293 cells (pEBG-2T-PDK1 mutant)
T4 sequence (O15530 1-556 T148V): T1 sequence (O15530 1-556) with T148V
Experimental: as §1, §2, §3

GFRDFDY [polypeptide comprising the complete hydrophobic motif present in PIFtide, reference compound]
activation of PDK1 (in words) (GST-PDK1 wt; concentrations up to 500 µM, data not shown): did not activate PDK1

P-HM-PKB: phosphorylated HM polypeptide of PKB: KGAGGGGFPQFS(P)YSA (KGAGGGGFPQF[pS]YSA) [reference compound]
activation of PDK1 mutant (in words) (GST-PDK1 [Gln150Ala]): completely abolished | activation of PDK1 mutant (in words) (GST-PDK1 [Ile119Ala]): completely abolished | activation of PDK1 mutant (in words) (GST-PDK1 [Thr148Val]): completely abolished | activation of PDK1 (in words) (GST-PDK1 wt; PDK1 wild type): activated
